Test results from US20250114433A1 (published 2025).
Residue numbers refer to the chain shown, from its start.

What was measured:
[1] = molecular target: T1, KRAS G12V peptide on HLA-A*02:01 (human); assay: multimer staining
T1 peptide: KLVVVGAVGV

[2] = molecular target: T2, KRAS G12V (same sequence in NRAS and HRAS G12V) peptide on HLA-A*11:01 (human); assay: cytokine release
T2 peptide: VVVGAVGVGK

[3] = molecular target: T3, KRAS G12V (same sequence in NRAS and HRAS G12V) peptide on HLA-A*11:01 (human); assay: cytokine release
T3 peptide: VVGAVGVGK

[4] = molecular target: T4, KRAS G12D (same sequence in NRAS and HRAS G12D) peptide on HLA-A*11:01 (human); assay: cytokine release
T4 peptide: VVVGADGVGK

[5] = molecular target: HLA-A2 (DM)/KRAS (5-14_G12V)-peptide multimer; assay: flow cytometry, Tet+ gate frequency; A2DM/KRAS G12V 5-14 tetramer at 1:50 [Continued]
[6] = molecular target: HLA-A2 (DM)/KRAS (5-14_G12V)-peptide multimer; assay: flow cytometry, Tet+ gate frequency; A2DM/KRAS G12V 5-14 tetramer at 1:100 [Continued]
[7] = molecular target: HLA-A2 (DM)/KRAS (5-14_G12V)-peptide multimer; assay: flow cytometry, Tet+ gate frequency; A2DM/KRAS G12V 5-14 tetramer at 1:200 [Continued]
[8] = molecular target: HLA-A2 (DM)/KRAS (5-14_G12V)-peptide multimer; assay: flow cytometry, Tet+ gate frequency; A2DM/KRAS G12V 5-14 tetramer at 1:400 [Continued]
[9] = molecular target: A2/KRAS G12V 5-14 (human), A*02:0; assay: flow cytometry, Tet+ gate frequency; A2/KRAS G12V 5-14 tetramer at 1:400; no-tetramer control Tet+ 0
[10] = molecular target: KRAS 7-16(G12D) SCT tetramer #2 (human); assay: flow cytometry, tetramer labelling of TCR-transduced donor X CD8+ T cells, Tetramer APC against CD8 ef450 [Continued]
[11] = molecular target: KRAS 7-16(G12V) SCT tetramer #7; assay: as above

B1: A2 KRAS TCR12 (TCR, V domains shown)
Valpha: AQSVTQLDSQVPVFEEAPVELRCNYSSSVSVYLFWYVQYPNQGLQLLLKYLSGSTLVESINGFEAEFNKSQTSFHLRKPSVHISDTAEYFCAVTRDDKIIFGKGTRLHILP
Vbeta: DVKVTQSSRYLVKRTGEKVFLECVQDMDHENMFWYRQDPGLGLRLIYFSYDVKMKEKGDIPEGYSVSREKKERFSLILESASTNQTSMYLCASSLQVSGVAGYTFGSGTRLTVV
binding result [1]: recognises

B2: TCR13 (TCR, V domains shown)
Valpha: QKEVEQDPGPLSVPEGAIVSLNCTYSNSAFQYFMWYRQYSRKGPELLMYTYSSGNKEDGRFTAQVDKSSKYISLFIRDSQPSDSATYLCAMSASAAGNKLTFGGGTRVLVKP
Vbeta: EADIYQTPRYLVIGTGKKITLECSQTMGHDKMYWYQQDPGMELHLIHYSYGVNSTEKGDLSSESTVSRIRTEHFPLTLESARPSHTSQYLCASSEGLYNEQFFGPGTRLTVL
binding result [2]: no recognition
binding result [3]: no recognition
binding result [4]: recognises
Tet+ [5]: 58.7
Tet+ [6]: 45
Tet+ [7]: 33.7
Tet+ [8]: 9.2
Tet+ [9]: 84.6
tetramer gate (share of cells in the gate; unit not given) [10]: 82.8
tetramer gate (share of cells in the gate; unit not given) [11]: 5.19

B3: A2 KRAS TCR19 (TCR, V domains shown)
Valpha: AQSVSQHNHHVILSEAASLELGCNYSYGGTVNLFWYVQYPGQHLQLLLKYFSGDPLVKGIKGFEAEFIKSKFSFNLRKPSVQWSDTAEYFCAVNDPSDYKLSFGAGTTVTVRA
Vbeta: DGGITQSPKYLFRKEGQNVTLSCEQNLNHDAMYWYRQDPGQGLRLIYYSQIVNDFQKGDIAEGYSVSREKKESFPLTVTSAQKNPTAFYLCASRSDRNEQFFGPGTRLTVL
binding result [1]: recognises

B4: A2 KRAS TCR15 (TCR, V domains shown)
Valpha: GEDVEQSLFLSVREGDSSVINCTYTDSSSTYLYWYKQEPGAGLQLLTYIFSNMDMKQDQRLTVLLNKKDKHLSLRIADTQTGDSAIYFCAEMMDTDKLIFGTGTRLQVFP
Vbeta: EAGVAQSPRYKIIEKRQSVAFWCNPISGHATLYWYQQILGQGPKLLIQFQNNGVVDDSQLPKDRFSAERLKGVDSTLKIQPAKLEDSAVYLCASSLPSGNEQFFGPGTRLTVL
binding result [1]: recognises

B5: A2 KRAS TCR11 (TCR, V domains shown)
Valpha: DQQVKQNSPSLSVQEGRISILNCDYTNSMFDYFLWYKKYPAEGPTFLISISSIKDKNEDGRFTVFLNKSAKHLSLHIVPSQPGDSAVYFCAAISLTSGTYKYIFGTGTRLKVLA
Vbeta: DTEVTQTPKHLVMGMTNKKSLKCEQHMGHRAMYWYKQKAKKPPELMFVYSYEKLSINESVPSRFSPECPNSSLLNLHLHALQPEDSALYLCASSQDLGTVYEQYFGPGTRLTVT
binding result [1]: recognises

B6: TCR_20 (TCR, V domains shown)
V domain 1: DAKTTQPPSMDCAEGRAANLPCNHSTISGNEYVYWYRQIHSQGPQYIIHGLKNNETNEMASLIITEDRKSSTLILPHATLRDTAVYYCIVRLNSGNTPLVFGKGTRLSVIA
V domain 2: EAGVAQSPRYKIIEKRQSVAFWCNPISGHATLYWYQQILGQGPKLLIQFQNNGVVDDSQLPKDRFSAERLKGVDSTLKIQPAKLEDSAVYLCASSPTFPAGDRDTQYFGPGTRLTVLE
tetramer gate (share of cells in the gate; unit not given) [10]: 3.48
tetramer gate (share of cells in the gate; unit not given) [11]: 3.96

B7: 141_1 TCR (TCR, V domains shown)
V domain 1: AQTVTQSQPEMSVQEAETVTLSCTYDTSESDYYLFWYKQPPSRQMILVIRQEAYKQQNATENRFSVNFQKAAKSFSLKISDSQLGDAAMYFCALKTSYDKVIFGPGTSLSVIP
V domain 2: NAGVTQTPKFQVLKTGQSMTLQCAQDMNHEYMSWYRQDPGMGLRLIHYSVGAGITDQGEVPNGYNVSRSTTEDFPLRLLSAAPSQTSVYFCASSLGAGEWKSPLHFGNGTRLTVTE
tetramer gate (share of cells in the gate; unit not given) [10]: 14.8
tetramer gate (share of cells in the gate; unit not given) [11]: 4.06

B8: A2 KRAS TCR05 (TCR, V domains shown)
Valpha: AQSVTQPDIHITVSEGASLELRCNYSYGATPYLFWYVQSPGQGLQLLLKYFSGDTLVQGIKGFEAEFKRSQSSFNLRKPSVHWSDAAEYFCAVGDENTGFQKLVFGTGTRLLVSP
Vbeta: DVKVTQSSRYLVKRTGEKVFLECVQDMDHENMFWYRQDPGLGLRLIYFSYDVKMKEKGDIPEGYSVSREKKERFSLILESASTNQTSMYLCASALRGTYEQYFGPGTRLTVT
binding result [1]: recognises

B9: A2 KRAS TCR18 (TCR, V domains shown)
Valpha: GEDVEQSLFLSVREGDSSVINCTYTDSSSTYLYWYKQEPGAGLQLLTYIFSNMDMKQDQRLTVLLNKKDKHLSLRIADTQTGDSAIYFCAVLLDNQGGKLIFGQGTELSVKP
Vbeta: B8 Vbeta with A94R, L95G, R96L, G97S, Y99D, E100T, T112L
binding result [1]: recognises

B10: A2 KRAS TCR08 (TCR, V domains shown)
Valpha: GEDVEQSLFLSVREGDSSVINCTYTDSSSTYLYWYKQEPGAGLQLLTYIFSNMDMKQDQRLTVLLNKKDKHLSLRIADTQTGDSAIYFCAERIDSGNTPLVFGKGTRLSVIA
Vbeta: B8 Vbeta with S93I, A94E, L95P, R96P, G97T, T98G, Y99N
binding result [1]: recognises

B11: A2 KRAS TCR04 (TCR, V domains shown)
Valpha: AQKVTQAQTEISVVEKEDVTLDCVYETRDTTYYLFWYKQPPSGELVFLIRRNSFDEQNEISGRYSWNFQKSTSSFNFTITASQVVDSAVYFCALMDSSYKLIFGSGTRLLVRP
Vbeta: GAVVSQHPSWVICKSGTSVKIECRSLDFQATTMFWYRQFPKQSLMLMATSNEGSKATYEQGVEKDKFLINHASLTLSTLTVTSAHPEDSSFYICSAFLSGSADTQYFGPGTRLTVL
binding result [1]: recognises

B12: A2 KRAS TCR09 (TCR, V domains shown)
Valpha: GESVGLHLPTLSVQEGDNSIINCAYSNSASDYFIWYKQESGKGPQFIIDIRSNMDKRQGQRVTVLLNKTVKHLSLQIAATQPGDSAVYFCAEIFNDYKLSFGAGTTVTVRA
Vbeta: EAQVTQNPRYLITVTGKKLTVTCSQNMNHEYMSWYRQDPGLGLRQIYYSMNVEVTDKGDVPEGYKVSRKEKRNFPLILESPSPNQTSLYFCASSQAGLGNEQFFGPGTRLTVL
binding result [1]: recognises
